Measured values as given in the RNAGym collection of RNA variant scans (doi:10.7554/elife.80360).

B1: Hammerhead Ribozyme (parent)
chain: ACCGGAUGUGCUUUCCGGUCUGAUGAGUCCGUGAGGACGAAACAG
B2: Hairpin Ribozyme (parent)
chain: GUCCUCUUUCACGUGCGCGUGAAAGAGAGAAGUGAACCAGAGAAACACACGUUGUGGUAUAUUACCUGGUA

Variants of: B1
Assay: self-cleavage, relative activity (ratio to wild type); higher = more cleavage; co-transcriptional

Variant	self-cleavage
A44U	0.756
G45U	0.898
G45C	0.844
G45A	0.842
A44U G45A	0.607
A44U G45U	1.91
A44U G45C	1.86

Variants of: B2
Assay: as above

Variant	self-cleavage
G1U A47U	0.0955
U2C G25C	0.118
U2A G13A	0.26
U2A G13C	0.158
G1U G57A	0.175
U2C C12U	0.226
U2C C12G	0.0835
U2C C12A	0.205
U2A G17U	0.22
G1A G15C	0.287
U2A A64U	0.0942
G1C U58G	0.284
G1U C3G	0.122
G1U C3A	0.161
G1U A35G	0.0705
G1U A35C	0.0858
U2A A11G	0.344
G1A A47U	0.257
G1U A11U	0.201
G1U A11G	0.143
U2A U58A	0.164
G1C A26C	0.14
G1C A26G	0.239

Variant	self-cleavage
G1C A11U	0.179
U2A U8C	0.162
U2A U8G	0.201
U2A U8A	0.279
G1U U52C	0.261
U2C A64C	0.0771
U2C A64U	0.107
G1C U8A	0.27
G1C C10U	0.241
G1C C10G	0.247
G1A G51A	0.21
G1U C18G	0.131
G1U C46A	0.106
U2C C3U	0.131
U2C C3G	0.214
U2C A39G	0.0933
U2C A39C	0.0668
U2C A71C	0.444
G1A A36U	0.0776
U2A C48A	0.159
G1A U67C	0.178
G1C A39C	0.225
G1C A39G	0.146

Variant	self-cleavage
U2A C4U	0.0895
U2C A11C	0.229
G1A A59U	0.286
U2A A47C	0.183
U2A A47G	0.102
G1A C48G	0.201
U2A U53G	0.134
G1U C6U	0.139
U2A A49C	0.149
U2C A31C	0.226
U2A A36G	0.194
U2A A36U	0.144
G1C A45C	0
G1C A45G	0.0824
U2A A23C	0.262
G1A G57A	0.177
G1A G57U	0.179
G1U C48A	0.134
G1A C38A	0.111
G1U G40C	0.055
U2A U52A	0.285
U2A U52C	0.169
U2C C18U	0.162

Variant	self-cleavage
U2A U14C	0.265
G1U G27A	0.148
U2C A22G	0.0938
G1C G29C	0.203
G1A G54C	0.193
U2C A59G	0.173
U2C A59C	0.0741
G1U G15A	0.171
G1U G51C	0.175
G1U G51A	0.205
G1C A47G	0.13
G1C A47U	0.152
G1U G13C	0.151
G1U G13U	0.156
G1C G17C	0.295
G1C G17A	0.232
U2A C18A	0.23
G1C C65A	0.141
U2C A44U	0.201
U2C G51A	0.219
U2C G51C	0.506
U2C A28C	0.117
U2C A28G	0

Variant	self-cleavage
G1A U20A	0.213
U2A G57C	0.0768
G1C G42C	0.272
G1C U62A	0.0347
G1C U62G	0.4
G1A G32U	0.184
G1A G32A	0.196
G1A G25C	0.209
G1U A61C	0.0683
G1U A61U	0.116
G1U A61G	0.041
G1U U58A	0.0365
G1A G69U	0.235
G1U U2G	0.22
U2A C3U	0.288
G1C G68A	0.362
G1C U20C	0.241
G1A A61C	0.175
G1A A61G	0.132
U2C G68C	0.187
U2C G68A	0.0299
G1C U55A	0.0884
G1C U55C	0.18

Variant	self-cleavage
G1C U52C	0.132
G1U U33G	0.0782
G1U U33A	0.123
G1A G27C	0.213
U2C A49G	0.0598
U2C A49C	0.189
G1A G56C	0.282
G1A G56U	0.0996
G1C G40C	0.0947
G1U C4G	0.213
G1U U53A	0.0738
U2A G42U	0.122
U2A G42C	0.145
G1U U70C	0.142
U2A A71U	0.186
U2A A71C	0.656
G1C G15A	0.184
U2A C37G	0.123
U2C A41G	0.158
G1A A41G	0.0682
U2A U67A	0.0652
G1U C50U	0.0718
G1C A36C	0.107

Variant	self-cleavage
G1C A36G	0.105
G1A C37U	0.196
G1C A35G	0.121
U2C G69A	0.0698
U2C G69C	0.0747
G1C A28G	0.167
G1U A44C	0.0421
U2C A26U	0.13
U2C C46A	0.232
U2A G56C	0.0929
U2A G56A	0.173
U2C C38A	0.0742
U2C C38U	0.147
G1C A24G	0.129
G1A C50A	0.127
G1A C50G	0.277
G1C G69A	0.141
G1C G69U	0.144
G1A C3G	0.342
U2A A45G	0.0349
U2A A45C	0.154
U2A C50U	0.113
